Target: CD2 on human T cells (human) (UniProt P06729)
Experiment: cell-based or functional assay

UniProt P06729, sequence (P06729 25-351 limits assumed): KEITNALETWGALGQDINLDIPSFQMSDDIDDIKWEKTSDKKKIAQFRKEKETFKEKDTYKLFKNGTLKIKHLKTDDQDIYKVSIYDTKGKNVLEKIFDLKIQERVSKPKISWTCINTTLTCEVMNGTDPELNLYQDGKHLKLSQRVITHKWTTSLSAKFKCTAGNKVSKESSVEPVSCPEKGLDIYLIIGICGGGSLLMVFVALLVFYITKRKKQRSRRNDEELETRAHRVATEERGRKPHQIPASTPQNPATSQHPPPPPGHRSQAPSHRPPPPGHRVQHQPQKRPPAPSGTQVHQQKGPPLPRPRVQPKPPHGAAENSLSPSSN

- inhibition of allogeneic T cell activation by normal skin cells ([3H]TdR incorporation), antibody at 50 µg/ml: 40%
- inhibition of autologous T cell proliferation ([3H]TdR incorporation) in response to lesional psoriatic epidermis, antibody at 50 µg/ml: 60%
Substance: anti-CD2 monoclonal antibody TS2/18

From patent publication US7323171
